For the assay, the target named is T1, hRad51 (human, UniProt Q06609 1-339).
T1 sequence (looked up): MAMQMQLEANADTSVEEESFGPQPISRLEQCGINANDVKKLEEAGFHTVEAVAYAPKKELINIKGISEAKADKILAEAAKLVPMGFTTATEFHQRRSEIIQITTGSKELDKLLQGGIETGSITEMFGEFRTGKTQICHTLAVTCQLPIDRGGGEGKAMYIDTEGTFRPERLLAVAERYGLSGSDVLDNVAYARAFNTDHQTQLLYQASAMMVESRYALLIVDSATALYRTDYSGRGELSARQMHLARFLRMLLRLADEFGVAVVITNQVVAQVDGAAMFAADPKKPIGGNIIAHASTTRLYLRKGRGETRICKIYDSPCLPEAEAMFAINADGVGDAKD
Put plainly: pull-down.

B1: GST-BRC3/4 (domain or fragment, human, UniProt P51587 1409-1596, looked up)
chain: LTATKTEQNIKDFETSDTFFQTASGKNISVAKESFNKIVNFFDQKPEELHNFSLNSELHSDIRKNKMDILSYEETDIVKHKILKESVPVGTGNQLVTFQGQPERDEKIKEPTLLGFHTASGKKVKIAKESLDKVKNLFDEKEQGTSEITSFSHQWAKTLKYREACKDLELACETIEITAAPKCKEMQN
As for B1, the binding result is listed as “binds”.

The values above are taken from publication PMC2077811 (The Journal of biological chemistry, 2006).
